Article PMC6706699 (Developmental Cell, 2019)
Numbering of substitutions follows the chain as printed. Blank lines part the entries; values can stand above or below the molecule they belong to. Square brackets hold non-standard residues; d marks the D form. Ends that are not written are not given here. pT = C[C@@H](OP(=O)(O)O)[C@H](N)C(=O)O

How the values were obtained:
[1] = biological target: NECAP1 PHear domain, 1-133 (UniProt Q8NC96); test: ITC; conditions: reference: unphosphorylated peptide …; sites T156
[2] = biological target: μ2T156-phosphorylated AP2, endogenous in RPE cells (human (endogenous in RPE)) (UniProt O95782); test: co-IP; native co-immunoprecipitation with anti-AP2α antibody AP6 on protein G-Sepharose from RPE cell lysates (0.1% NP40), overnight at 4°C; western blot
μ2T156-phosphorylated AP2, endogenous in RPE cells (human (endogenous in RPE)), sequence (O95782 whole entry, chain 1 of 4, the tested form may be a part): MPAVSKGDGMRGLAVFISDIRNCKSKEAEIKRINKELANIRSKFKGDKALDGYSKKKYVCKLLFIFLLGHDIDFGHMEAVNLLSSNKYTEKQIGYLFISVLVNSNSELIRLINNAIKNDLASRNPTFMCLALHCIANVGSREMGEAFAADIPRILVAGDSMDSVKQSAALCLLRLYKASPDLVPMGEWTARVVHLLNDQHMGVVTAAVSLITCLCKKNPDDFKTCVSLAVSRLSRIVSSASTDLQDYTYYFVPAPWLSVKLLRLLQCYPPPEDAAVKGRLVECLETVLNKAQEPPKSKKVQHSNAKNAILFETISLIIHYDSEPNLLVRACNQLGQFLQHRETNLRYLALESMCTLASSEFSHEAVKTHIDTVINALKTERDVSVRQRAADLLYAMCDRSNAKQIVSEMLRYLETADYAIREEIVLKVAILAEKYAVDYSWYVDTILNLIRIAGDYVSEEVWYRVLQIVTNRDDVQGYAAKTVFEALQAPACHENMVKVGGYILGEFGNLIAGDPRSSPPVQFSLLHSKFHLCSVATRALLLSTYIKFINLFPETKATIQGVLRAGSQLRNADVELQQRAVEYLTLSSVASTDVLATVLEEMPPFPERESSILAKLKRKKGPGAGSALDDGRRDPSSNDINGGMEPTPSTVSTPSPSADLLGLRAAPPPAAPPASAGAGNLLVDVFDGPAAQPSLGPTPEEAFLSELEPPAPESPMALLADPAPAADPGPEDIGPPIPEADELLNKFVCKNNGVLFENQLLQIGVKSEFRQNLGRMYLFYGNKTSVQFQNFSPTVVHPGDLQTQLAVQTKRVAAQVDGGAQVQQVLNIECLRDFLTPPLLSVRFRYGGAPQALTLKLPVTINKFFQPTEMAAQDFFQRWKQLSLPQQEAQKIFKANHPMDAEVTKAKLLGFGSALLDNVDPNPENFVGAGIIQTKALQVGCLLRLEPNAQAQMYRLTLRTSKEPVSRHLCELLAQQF
μ2T156-phosphorylated AP2, endogenous in RPE cells (human (endogenous in RPE)), sequence (P63010 whole entry, chain 2 of 4, further chain, the tested form may be a part): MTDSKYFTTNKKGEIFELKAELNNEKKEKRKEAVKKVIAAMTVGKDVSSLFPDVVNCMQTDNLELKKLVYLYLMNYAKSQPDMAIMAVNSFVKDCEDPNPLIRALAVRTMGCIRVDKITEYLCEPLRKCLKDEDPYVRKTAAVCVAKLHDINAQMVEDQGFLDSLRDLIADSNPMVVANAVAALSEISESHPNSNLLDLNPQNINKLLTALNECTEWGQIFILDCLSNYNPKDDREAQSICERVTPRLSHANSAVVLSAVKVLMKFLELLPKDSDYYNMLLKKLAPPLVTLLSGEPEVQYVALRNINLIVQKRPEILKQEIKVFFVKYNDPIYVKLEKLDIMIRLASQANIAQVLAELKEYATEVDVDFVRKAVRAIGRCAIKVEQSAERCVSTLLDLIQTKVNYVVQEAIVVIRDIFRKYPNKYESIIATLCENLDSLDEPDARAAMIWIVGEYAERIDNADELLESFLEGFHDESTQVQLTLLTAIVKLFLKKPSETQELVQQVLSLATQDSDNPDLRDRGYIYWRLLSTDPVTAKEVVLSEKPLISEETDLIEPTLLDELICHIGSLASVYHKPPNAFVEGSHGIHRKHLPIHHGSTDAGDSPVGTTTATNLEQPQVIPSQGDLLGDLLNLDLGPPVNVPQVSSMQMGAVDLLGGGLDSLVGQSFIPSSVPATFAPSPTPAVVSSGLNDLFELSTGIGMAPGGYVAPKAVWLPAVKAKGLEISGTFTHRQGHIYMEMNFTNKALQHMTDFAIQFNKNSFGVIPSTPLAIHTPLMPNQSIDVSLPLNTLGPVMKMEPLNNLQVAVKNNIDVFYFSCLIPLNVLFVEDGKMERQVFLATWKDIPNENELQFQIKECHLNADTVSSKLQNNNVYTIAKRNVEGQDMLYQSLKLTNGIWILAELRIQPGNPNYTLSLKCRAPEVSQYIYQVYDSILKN
μ2T156-phosphorylated AP2, endogenous in RPE cells (human (endogenous in RPE)), sequence (Q96CW1 whole entry, chain 3 of 4, further chain, the tested form may be a part): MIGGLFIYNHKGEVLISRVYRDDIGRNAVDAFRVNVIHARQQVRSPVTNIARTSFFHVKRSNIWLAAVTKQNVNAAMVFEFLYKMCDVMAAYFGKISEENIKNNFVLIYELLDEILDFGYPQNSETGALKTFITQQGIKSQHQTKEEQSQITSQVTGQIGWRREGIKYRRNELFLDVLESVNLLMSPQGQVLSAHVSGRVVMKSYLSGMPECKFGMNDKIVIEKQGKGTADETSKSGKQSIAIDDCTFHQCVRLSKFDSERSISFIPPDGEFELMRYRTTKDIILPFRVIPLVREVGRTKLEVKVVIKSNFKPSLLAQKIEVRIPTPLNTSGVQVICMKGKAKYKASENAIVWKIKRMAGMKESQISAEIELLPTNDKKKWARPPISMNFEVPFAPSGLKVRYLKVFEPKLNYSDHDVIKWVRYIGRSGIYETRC
μ2T156-phosphorylated AP2, endogenous in RPE cells (human (endogenous in RPE)), sequence (P53680 whole entry, chain 4 of 4, further chain, the tested form may be a part): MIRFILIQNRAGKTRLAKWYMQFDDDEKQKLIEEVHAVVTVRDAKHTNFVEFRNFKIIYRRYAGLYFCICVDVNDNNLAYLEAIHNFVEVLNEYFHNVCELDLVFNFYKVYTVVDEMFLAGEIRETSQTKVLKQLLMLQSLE

[3] = biological target: TGN38 cytoplasmic domain peptide, lipid-linked, in PtdIns4,5P2 liposomes; test: SPR; BIAcore T200, liposomes (PC/PE with 4% PtdIns4,5P2 and 2% lipid-linked peptide) on an L1 sensor; core or Pcore injected at 50 nM to 50 μM; 10 mM Tris pH 8.7, 250 mM NaCl, 1 mM DTT; apparent constants from fast and slow dissociation amplitudes
[4] = biological target: Recombinant T156-phosphorylated AP2 core (UniProt P18484); test: ITC; Nano ITC, 10°C, 100 mM TRIS pH 8, 250 mM NaCl, 0.25 mM TCEP; 0.05-0.1 mM Pcore in the cell, 2-3 mM PHear titrated in
Recombinant T156-phosphorylated AP2 core (UniProt P18484), sequence (P18484 whole entry, chain 1 of 4): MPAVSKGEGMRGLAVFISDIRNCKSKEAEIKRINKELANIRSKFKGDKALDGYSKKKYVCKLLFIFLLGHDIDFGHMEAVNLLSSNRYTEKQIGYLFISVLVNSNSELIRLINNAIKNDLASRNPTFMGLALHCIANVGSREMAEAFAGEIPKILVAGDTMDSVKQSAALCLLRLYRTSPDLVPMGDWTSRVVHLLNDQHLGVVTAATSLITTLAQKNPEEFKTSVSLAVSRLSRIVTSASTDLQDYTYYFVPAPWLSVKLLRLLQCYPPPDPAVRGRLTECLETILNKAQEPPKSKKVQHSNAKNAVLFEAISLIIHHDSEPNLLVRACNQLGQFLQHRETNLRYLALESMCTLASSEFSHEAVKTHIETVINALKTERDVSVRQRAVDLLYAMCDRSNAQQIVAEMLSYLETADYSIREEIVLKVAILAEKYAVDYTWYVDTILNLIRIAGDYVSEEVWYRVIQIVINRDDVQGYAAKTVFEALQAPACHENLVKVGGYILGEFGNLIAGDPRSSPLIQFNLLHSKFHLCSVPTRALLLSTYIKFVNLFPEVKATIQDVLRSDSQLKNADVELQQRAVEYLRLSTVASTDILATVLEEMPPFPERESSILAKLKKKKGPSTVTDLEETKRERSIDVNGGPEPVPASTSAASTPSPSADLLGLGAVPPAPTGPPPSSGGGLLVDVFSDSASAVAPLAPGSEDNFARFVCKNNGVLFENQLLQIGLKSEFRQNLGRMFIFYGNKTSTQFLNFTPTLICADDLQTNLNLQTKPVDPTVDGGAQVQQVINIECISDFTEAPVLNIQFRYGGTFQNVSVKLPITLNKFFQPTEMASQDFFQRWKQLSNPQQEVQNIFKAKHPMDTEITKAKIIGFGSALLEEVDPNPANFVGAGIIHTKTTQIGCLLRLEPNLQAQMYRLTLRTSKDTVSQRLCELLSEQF
Recombinant T156-phosphorylated AP2 core (UniProt P18484), sequence (P63010 1-592, chain 2 of 4, further chain): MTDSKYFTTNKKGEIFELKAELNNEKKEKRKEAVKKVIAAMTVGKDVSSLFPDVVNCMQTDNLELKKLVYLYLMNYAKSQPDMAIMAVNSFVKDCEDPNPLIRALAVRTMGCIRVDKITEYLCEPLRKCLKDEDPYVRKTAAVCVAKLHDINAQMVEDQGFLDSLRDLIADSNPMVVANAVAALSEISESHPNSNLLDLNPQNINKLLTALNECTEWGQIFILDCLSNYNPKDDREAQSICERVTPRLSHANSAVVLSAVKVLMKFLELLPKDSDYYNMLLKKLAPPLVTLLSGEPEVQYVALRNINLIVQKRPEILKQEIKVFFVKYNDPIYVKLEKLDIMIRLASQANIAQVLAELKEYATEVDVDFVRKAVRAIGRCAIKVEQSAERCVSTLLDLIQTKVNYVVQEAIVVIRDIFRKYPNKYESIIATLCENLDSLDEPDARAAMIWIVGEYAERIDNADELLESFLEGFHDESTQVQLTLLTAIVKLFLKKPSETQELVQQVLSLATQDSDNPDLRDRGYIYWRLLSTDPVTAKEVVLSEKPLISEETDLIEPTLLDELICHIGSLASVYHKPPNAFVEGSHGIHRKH
Recombinant T156-phosphorylated AP2 core (UniProt P18484), sequence (P84092 whole entry, chain 3 of 4, further chain): as the sequence (Q96CW1 whole entry, chain 3 of 4, further chain, the tested form may be a part) above
Recombinant T156-phosphorylated AP2 core (UniProt P18484), sequence (P62743 whole entry, chain 4 of 4, further chain): as the sequence (P53680 whole entry, chain 4 of 4, further chain, the tested form may be a part) above

[5] = biological target: T1, NECAP1 PHear (1-133) R102A (UniProt Q8NC96 1-133, R102A); test: ITC
T1 sequence: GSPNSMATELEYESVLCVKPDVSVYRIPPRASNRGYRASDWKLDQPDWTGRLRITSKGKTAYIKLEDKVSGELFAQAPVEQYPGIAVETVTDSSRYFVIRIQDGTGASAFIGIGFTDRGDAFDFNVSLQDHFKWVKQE

[6] = biological target: T2, NECAP1 PHear (1-133) S88A (UniProt Q8NC96 1-133, S88A); test: ITC
T2 sequence: T1 sequence with S93A, A107R

[7] = biological target: T3, NECAP1 PHear (1-133) R32D (UniProt Q8NC96 1-133, R32D); test: ITC
T3 sequence: T1 sequence with R37D, A107R

[8] = biological target: T4, NECAP1 PHear domain (NECAP 1-133), wild type (UniProt Q8NC96 1-133); test: ITC; + FxDxF peptide
T4 chain: T1 sequence with A107R

[9] = biological target: NECAP1 PHear domain (NECAP 1-133), wild type (UniProt Q8NC96); test: ITC; Nano ITC, 12°C, 75 mM HEPES pH 7.4, 0.25 mM TCEP; PHear domains in the cell, peptides at 1-5 mM titrated in
[10] = biological target: T5, NECAP1 PHear (1-133) S88A (UniProt Q8NC96 1-133, S88A); test: as above; conditions: both partners purified
T5 construct: NECAP1 PHear domain, residues 1-133; source: E. coli BL21DE3 pLysS, purified (GST sepharose, thrombin cleavage, gel filtration); not shown: GST, N-terminal, cleaved
T5 sequence: T1 sequence with S93A, A107R

[11] = biological target: T6, NECAP1 PHear (1-133) R32D (UniProt Q8NC96 1-133, R32D); test: as above; conditions: both partners purified
T6 construct: NECAP1 PHear domain, residues 1-133; Not in the plasmid list; source: E. coli BL21DE3 pLysS, purified (GST sepharose, thrombin cleavage, gel filtration); not shown: GST, N-terminal, cleaved
T6 sequence: T1 sequence with R37D, A107R

[12] = biological target: T7, NECAP1 PHear (1-133) R102A (UniProt Q8NC96 1-133, R102A); test: as above; conditions: both partners purified
T7 construct: NECAP1 PHear domain, residues 1-133; source: E. coli BL21DE3 pLysS, purified (GST sepharose, thrombin cleavage, gel filtration); not shown: GST, N-terminal, cleaved
T7 sequence: T1 sequence

percent reduction in binding against NECAP1-mRuby2 WT [2]: 60%
Molecule: mRuby2-Flag-GGGS-NECAP1 R90A (from UniProt Q8NC96-1 1-275) (natural protein)

Kd [4]: 8 µM
Molecule: NECAP1 PHear domain (NECAP 1-133), wild type (from UniProt Q8NC96 1-133) (domain or fragment)

The next lines start with the molecule.

Molecule: AP2 μ2 subunit (recombinant AP2 core / Pcore, GST-μ2 linkers, μ2 linker peptides) μ2 linker, 149-163 (from UniProt P84092) pT156 peptide
KD [1]: gained; reference no binding detected

Molecule: Recombinant T156-phosphorylated AP2 core (from UniProt P18484 1-938; P63010 1-592; P84092 1-435; P62743 1-142) (complex)
fold increase in liposome-binding affinity against the unphosphorylated core [3]: 3 fold

B1: T156-phosphorylated μ2 linker peptide (residues 149–163) (peptide)
peptide: SQITSQV[pT]GQIGWRR
notes: also called Peptide μ2linker Phos; phosphorylated μ2 peptide; source: synthetic peptide (Genscript)
Kd [5]: 57 µM
Kd [6]: > 300 µM
Kd [7]: 126 µM
Kd [8]: 44.9 µM
Kd [9]: 55 µM
binding result [10]: binds
binding result [11]: binds
binding result [12]: binds
